# PMC5576363
# Where a chain is given by its changes, count along the chain named.
# T1: LbuC2c2-WT (Leptotrichia buccalis, UniProt C7NBY4 1-1159)
# T1 sequence: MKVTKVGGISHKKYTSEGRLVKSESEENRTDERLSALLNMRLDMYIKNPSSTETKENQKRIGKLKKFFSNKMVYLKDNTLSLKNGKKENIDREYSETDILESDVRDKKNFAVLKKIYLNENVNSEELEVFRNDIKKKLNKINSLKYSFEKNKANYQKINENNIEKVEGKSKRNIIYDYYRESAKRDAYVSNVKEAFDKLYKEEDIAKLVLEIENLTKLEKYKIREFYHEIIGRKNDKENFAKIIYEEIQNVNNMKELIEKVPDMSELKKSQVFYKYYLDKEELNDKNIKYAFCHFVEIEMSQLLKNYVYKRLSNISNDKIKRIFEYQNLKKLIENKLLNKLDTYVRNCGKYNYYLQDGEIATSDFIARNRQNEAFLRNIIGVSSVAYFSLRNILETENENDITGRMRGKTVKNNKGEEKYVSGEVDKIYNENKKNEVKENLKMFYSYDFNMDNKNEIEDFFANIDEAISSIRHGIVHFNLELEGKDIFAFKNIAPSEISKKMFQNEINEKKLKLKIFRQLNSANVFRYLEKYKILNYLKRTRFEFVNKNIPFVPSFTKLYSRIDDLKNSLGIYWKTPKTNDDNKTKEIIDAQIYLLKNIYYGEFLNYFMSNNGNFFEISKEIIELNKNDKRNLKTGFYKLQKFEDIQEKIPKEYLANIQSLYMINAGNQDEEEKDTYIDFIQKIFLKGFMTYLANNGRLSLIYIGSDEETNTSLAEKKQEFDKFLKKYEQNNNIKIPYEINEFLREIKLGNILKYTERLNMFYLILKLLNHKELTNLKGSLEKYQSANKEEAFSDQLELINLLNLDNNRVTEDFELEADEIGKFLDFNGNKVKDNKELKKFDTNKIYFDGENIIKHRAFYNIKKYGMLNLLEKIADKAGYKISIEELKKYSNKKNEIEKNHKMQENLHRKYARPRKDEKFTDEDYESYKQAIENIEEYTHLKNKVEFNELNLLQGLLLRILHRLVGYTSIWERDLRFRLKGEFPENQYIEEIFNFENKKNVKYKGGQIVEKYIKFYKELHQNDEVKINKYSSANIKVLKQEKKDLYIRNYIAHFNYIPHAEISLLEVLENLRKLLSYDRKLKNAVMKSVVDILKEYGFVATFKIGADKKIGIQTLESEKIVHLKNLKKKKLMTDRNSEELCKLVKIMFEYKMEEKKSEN
# B1: mature crRNA-A_GG (crLbu_A_GG_AES432) (structured_RNA)
# RNA: GGCCACCCCAAAAAUGAAGGGGACUAAAACAGGGGCAGAGAUGAUGACCCU
# B2: mature crRNA-A_GA (crLbu_A_mature_GA_SCK340) (structured_RNA)
# RNA: B1 RNA with G2A
# Molecular target: T1, LbuC2c2-WT
# Assay: filter binding
row,Binder,Kd
1,B1,27.1 ± 7.5 nM
2,B2,4.65 ± 0.6 nM
